Experiments:
[1] = molecular target: T1, Recombinant human gp130-Fc chimera (human, UniProt P40189-1 23-619); assay: SPR; IL-27Rα-Fc or gp130-Fc captured on mouse anti-human IgG-Fc antibodies amine-coupled to a CM5 chip; IL-27 injected at increasing concentrations (multicycle), 30 μL/min; BIAcore T100, 25°C, HBS-EP+; double referenced; global fit, 1:1 Langmuir model; KD = kd/ka; conditions: both partners purified
T1 construct: gp130 (interleukin-6 receptor subunit beta), human; Captured on the chip by anti-human IgG-Fc antibodies; also called gp130-Fc fusion protein; source: bought: R & D Systems
T1 sequence (looked up): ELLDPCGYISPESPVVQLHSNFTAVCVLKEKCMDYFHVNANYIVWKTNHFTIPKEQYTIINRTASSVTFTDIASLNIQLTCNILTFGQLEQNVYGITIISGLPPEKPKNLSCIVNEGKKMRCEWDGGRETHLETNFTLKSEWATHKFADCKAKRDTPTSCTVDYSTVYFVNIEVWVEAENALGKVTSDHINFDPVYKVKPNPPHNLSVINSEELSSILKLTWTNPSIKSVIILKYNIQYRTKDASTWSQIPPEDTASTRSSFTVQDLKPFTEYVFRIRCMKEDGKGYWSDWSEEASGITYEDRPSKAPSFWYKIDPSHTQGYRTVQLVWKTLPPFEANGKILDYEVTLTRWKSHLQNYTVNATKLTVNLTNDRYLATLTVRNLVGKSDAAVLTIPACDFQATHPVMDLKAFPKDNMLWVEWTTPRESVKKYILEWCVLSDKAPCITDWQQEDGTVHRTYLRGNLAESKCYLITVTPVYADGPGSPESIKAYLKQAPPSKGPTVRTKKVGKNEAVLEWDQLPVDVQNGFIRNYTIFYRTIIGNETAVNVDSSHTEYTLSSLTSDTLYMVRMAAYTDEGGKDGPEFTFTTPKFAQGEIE

[2] = molecular target: T2, Recombinant human IL27Rα-Fc chimera (human, UniProt Q6UWB1 33-516); assay: as above; conditions: both partners purified
T2 construct: IL-27 receptor subunit alpha (IL-27Rα, WSX-1, TCCR), human; Captured on the chip by anti-human IgG-Fc antibodies; also called IL-27Rα-Fc fusion protein; IL-27R-Fc fusion protein; source: bought: R & D Systems
T2 sequence (looked up): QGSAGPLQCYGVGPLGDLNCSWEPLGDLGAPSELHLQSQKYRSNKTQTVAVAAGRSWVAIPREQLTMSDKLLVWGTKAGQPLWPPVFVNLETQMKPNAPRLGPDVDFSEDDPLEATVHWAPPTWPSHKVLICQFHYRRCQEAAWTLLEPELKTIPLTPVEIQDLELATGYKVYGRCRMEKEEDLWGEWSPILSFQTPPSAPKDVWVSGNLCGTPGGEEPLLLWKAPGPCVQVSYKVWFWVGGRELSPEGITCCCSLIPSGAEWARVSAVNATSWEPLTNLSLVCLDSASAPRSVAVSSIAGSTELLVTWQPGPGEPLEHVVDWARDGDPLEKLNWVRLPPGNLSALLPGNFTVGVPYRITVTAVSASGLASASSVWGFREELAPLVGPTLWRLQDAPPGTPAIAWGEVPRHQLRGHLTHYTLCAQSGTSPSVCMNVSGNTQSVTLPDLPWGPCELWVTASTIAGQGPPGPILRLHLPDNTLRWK

B1: Recombinant human IL-27 (ligand)
chain 1: FPRPPGRPQLSLQELRREFTVSLHLARKLLSEVRGQAHRFAESHLPGVNLYLLPLGEQLPDVSLTFQAWRRLSDPERLCFISTTLQPFHALLGGLGTQGRWTNMERMQLWAMRLDLRDLQRHLRFQVLAAGFNLPEEEEEEEEEEEEERKGLLPGALGSALQGPAQVSWPQLLSTYRLLHSLELVLSRAVRELLLLSKAGHSVWPLGFPTLSPQP
chain 2: RKGPPAALTLPRVQCRASRYPIAVDCSWTLPPAPNSTSPVSFIATYRLGMAARGHSWPCLQQTPTSTSCTITDVQLFSMAPYVLNVTAVHPWGSSSSFVPFITEHIIKPDPPEGVRLSPLAERQLQVQWEPPGSWPFPEIFSLKYWIRYKRQGAARFHRVGPIEATSFILRAVRPRARYYVQVAAQDLTDYGELSDWSLPATATMSLGK
notes: IL-27 subunit p28 (cytokine subunit of the heterodimeric IL-27), human; Epstein-Barr virus-induced gene 3 (EBI3), the soluble cytokine receptor subunit of IL-27, human; also called interleukin-27; source: bought: R & D Systems
Kd [1]: 2.74 nM | koff [1]: 456 s⁻¹ | Kd [2]: 0.0457 nM | koff [2]: 0.00414 s⁻¹ | kon [2]: 9.08e+07 M⁻¹ s⁻¹
